Experiments:
Assay in all cases: cell-based or functional assay
[1] = molecular target: HIV-1 Env of pseudovirus HIV-16845-2.22 (HIV-1)
[2] = molecular target: HIV-1 Env of pseudovirus Ce2010_F5 (HIV-1)
[3] = molecular target: HIV-1 Env of pseudovirus Ce1172_H1 (HIV-1)
[4] = molecular target: HIV-1 Env of pseudovirus 1054_07_TC4_1499 (HIV-1)
[5] = molecular target: HIV-1 Env of pseudovirus 263-8 (HIV-1)
[6] = molecular target: HIV-1 Env of pseudovirus 928-28 (HIV-1)
[7] = molecular target: HIV-1 Env of pseudovirus ZM247v1(Rev-) (HIV-1)
[8] = molecular target: HIV-1 Env of pseudovirus MS208.A1 (HIV-1)
[9] = molecular target: HIV-1 Env of pseudovirus CNE17 (HIV-1)
[10] = molecular target: HIV-1 Env of pseudovirus 3301.v1.c24 (HIV-1)
[11] = molecular target: HIV-1 Env of pseudovirus X2088_c9 (HIV-1)
[12] = molecular target: HIV-1 Env of pseudovirus PVO.4 (HIV-1)
[13] = molecular target: HIV-1 Env of pseudovirus 6041.v3.c23 (HIV-1)
[14] = molecular target: HIV-1 Env of pseudovirus BJOX028000.10.3 (HIV-1)
[15] = molecular target: HIV-1 Env of pseudovirus 231966.c02 (HIV-1)
[16] = molecular target: HIV-1 Env of pseudovirus CNE19 (HIV-1)
[17] = molecular target: HIV-1 Env of pseudovirus ZM109F.PB4 (HIV-1)
[18] = molecular target: HIV-1 Env of pseudovirus Ce1086_B2 (HIV-1)
[19] = molecular target: HIV-1 Env of pseudovirus A07412M1.vrc12 (HIV-1)
[20] = molecular target: HIV-1 Env of pseudovirus Q461.e2 (HIV-1)
[21] = molecular target: HIV-1 Env of pseudovirus C2101.c01 (HIV-1)
[22] = molecular target: HIV-1 Env of pseudovirus WEAU_d15_410_787 (HIV-1)
[23] = molecular target: HIV-1 Env of pseudovirus QH0692.42 (HIV-1)
[24] = molecular target: HIV-1 Env of pseudovirus Q842.d12 (HIV-1)
[25] = molecular target: HIV-1 Env of pseudovirus Ce0682_E4 (HIV-1)
[26] = molecular target: HIV-1 Env of pseudovirus 620345.c01 (HIV-1)
[27] = molecular target: HIV-1 Env of pseudovirus Ce2060_G9 (HIV-1)
[28] = molecular target: HIV-1 Env of pseudovirus P1981_C5_3 (HIV-1)
[29] = molecular target: HIV-1 Env of pseudovirus 6535.3 (HIV-1)
[30] = molecular target: HIV-1 Env of pseudovirus 211-9 (HIV-1)
[31] = molecular target: HIV-1 Env of pseudovirus Du156.12 (HIV-1)
[32] = molecular target: HIV-1 Env of pseudovirus Q769.d22 (HIV-1)
[33] = molecular target: HIV-1 Env of pseudovirus CNE8 (HIV-1)
[34] = molecular target: HIV-1 Env of pseudovirus Q259.d2.17 (HIV-1)
[35] = molecular target: HIV-1 Env of pseudovirus CNE5 (HIV-1)
[36] = molecular target: HIV-1 Env of pseudovirus ZM249M.PL1 (HIV-1)
[37] = molecular target: HIV-1 Env of pseudovirus CNE58 (HIV-1)

PGDM1400 (antibody)
IC50 [1]: > 50 µg/mL | IC80 [1]: > 50 µg/mL | IC50 [2]: > 50 µg/mL | IC80 [2]: > 50 µg/mL | IC50 [3]: 0.021 µg/mL | IC80 [3]: 0.06 µg/mL | IC50 [4]: > 50 µg/mL | IC80 [4]: > 50 µg/mL | IC50 [5]: 0.02 µg/mL | IC80 [5]: 0.103 µg/mL | IC50 [6]: 0.22 µg/mL | IC80 [6]: 1.25 µg/mL | IC50 [7]: 0.019 µg/mL | IC80 [7]: 0.051 µg/mL | IC50 [8]: < 0.001 µg/mL | IC80 [8]: 0.139 µg/mL | IC50 [9]: 0.007 µg/mL | IC80 [9]: 0.021 µg/mL | IC50, titer in TZM.bl cells [10]: 0.048 µg/mL | IC80, titer in TZM.bl cells [10]: 0.245 µg/mL | IC50, titer in TZM.bl cells [11]: > 50 µg/mL | IC80, titer in TZM.bl cells [11]: > 50 µg/mL | IC50 [12]: 0.484 µg/mL | IC80 [12]: 6.49 µg/mL | IC50, titer in TZM.bl cells [13]: 0.013 µg/mL | IC80, titer in TZM.bl cells [13]: 0.289 µg/mL | IC50, titer in TZM.bl cells [14]: 0.072 µg/mL | IC80, titer in TZM.bl cells [14]: 0.963 µg/mL | IC50, titer in TZM.bl cells [15]: 0.001 µg/mL | IC80, titer in TZM.bl cells [15]: 0.004 µg/mL | IC50 [16]: 0.001 µg/mL | IC80 [16]: 0.007 µg/mL | IC50 [17]: 0.057 µg/mL | IC80 [17]: 0.382 µg/mL | IC50 [18]: > 50 µg/mL | IC80 [18]: > 50 µg/mL | IC50, titer in TZM.bl cells [19]: 0.032 µg/mL | IC80, titer in TZM.bl cells [19]: 0.127 µg/mL | IC50 [20]: 0.089 µg/mL | IC80 [20]: 0.572 µg/mL | IC50, titer in TZM.bl cells [21]: 0.006 µg/mL | IC80, titer in TZM.bl cells [21]: 0.021 µg/mL | IC50 [22]: 0.103 µg/mL | IC80 [22]: 1.37 µg/mL | IC50 [23]: > 50 µg/mL | IC80 [23]: > 50 µg/mL | IC50 [24]: < 0.001 µg/mL | IC80 [24]: 0.002 µg/mL | IC50 [25]: 0.01 µg/mL | IC80 [25]: 0.043 µg/mL | IC50, titer in TZM.bl cells [26]: 0.009 µg/mL | IC80, titer in TZM.bl cells [26]: 40.3 µg/mL | IC50 [27]: 0.001 µg/mL | IC80 [27]: 0.007 µg/mL | IC50, titer in TZM.bl cells [28]: 0.104 µg/mL | IC80, titer in TZM.bl cells [28]: 4.6 µg/mL | IC50 [29]: > 50 µg/mL | IC80 [29]: > 50 µg/mL | IC50, titer in TZM.bl cells [30]: 0.088 µg/mL | IC80, titer in TZM.bl cells [30]: 0.393 µg/mL | IC50 [31]: 0.002 µg/mL | IC80 [31]: 0.008 µg/mL | IC50 [32]: 0.002 µg/mL | IC80 [32]: 0.018 µg/mL | IC50, titer in TZM.bl cells [33]: < 0.001 µg/mL | IC80, titer in TZM.bl cells [33]: 0.01 µg/mL | IC50 [34]: 0.166 µg/mL | IC80 [34]: > 50 µg/mL | IC50, titer in TZM.bl cells [35]: < 0.001 µg/mL | IC80, titer in TZM.bl cells [35]: < 0.001 µg/mL | IC50 [36]: 0.016 µg/mL | IC80 [36]: 0.701 µg/mL | IC50 [37]: 0.004 µg/mL | IC80 [37]: 0.014 µg/mL
